Measured values taken from PMC10776578, “Epstein-Barr virus-driven B cell lymphoma mediated by a direct LMP1-TRAF6 complex” (Nature Communications, 2024).
Residue numbers refer to the chain shown, from its start. Numbers in names are those of the source. Entries after “also recorded” stand apart in the source; their conditions may differ.

B1: R392A (protein, UniProt Q9Y4K3 1-522, looked up, variant R392A)
TNF receptor-associated …: MSLLNCENSCGSSQSESDCCVAMASSCSAVTKDDSVGGTASTGNLSSSFMEEIQGYDVEFDPPLESKYECPICLMALREAVQTPCGHRFCKACIIKSIRDAGHKCPVDNEILLENQLFPDNFAKREILSLMVKCPNEGCLHKMELRHLEDHQAHCEFALMDCPQCQRPFQKFHINIHILKDCPRRQVSCDNCAASMAFEDKEIHDQNCPLANVICEYCNTILIREQMPNHYDLDCPTAPIPCTFSTFGCHEKMQRNHLARHLQENTQSHMRMLAQAVHSLSVIPDSGYISEVRNFQETIHQLEGRLVRQDHQIRELTAKMETQSMYVSELKRTIRTLEDKVAEIEAQQCNGIYIWKIGNFGMHLKCQEEEKPVVIHSPGFYTGKPGYKLCMALHLQLPTAQRCANYISLFVHTMQGEYDSHLPWPFQGTIRLTILDQSEAPVRQNHEEIMDAKPELLAFQRPTIPRNPKGFGYVTFMHLEALRQRTFIKDDTLLVRCEVSTRFDMGSLRREGFQPRSTDAGV
B2: Y473A (protein, UniProt Q9Y4K3 1-522, looked up, variant Y473A)
TNF receptor-associated …: B1 TNF receptor-associated … with A392R, Y473A
B3: F471A (protein, UniProt Q9Y4K3 1-522, looked up, variant F471A)
TNF receptor-associated …: B1 TNF receptor-associated … with A392R, F471A

Experiments:
GST-LMP1_181-386 = assay: AlphaScreen PPI, TRAF6 mutants binding to LMP1; set-up: species or system Epstein-Barr virus; TRAF6 binding to LMP1 (AlphaScreen), mean: unit not given here; conditions: for effect of TRAF6 mutation on binding to LMP1 (in words): AlphaScreen PPI; for TRAF6 binding to LMP1 (AlphaScreen), mean / TRAF6 binding to LMP1 (AlphaScreen): Figure 2a; for TRAF6 binding to LMP1 (AlphaScreen), mean: mean of n = 3
Experimental: (§1) Fig. 2 LMP1 binds to the receptor-interacting surface of TRAF6. a Mutations within the receptor-interacting surface of TRAF6 affect binding to LMP1. The TRAF6 mutants R392A, K469A, F471A, and Y473A were tested LMP1 in AlphaScreen PPI experiments with GST-LMP1_181-386. Data are mean values ± SD of three independent experiments. Statistics: one-way ANOVA. b TRAF6 R392A differentiates between CD40 and LMP1/RANK. AlphaScreen PPI experiments with GST-CD40_216-277. Data are mean values ± SD of three independent experiments. […] AlphaScreen PPI experiments with GST-RANK314-355. Data are mean values ± SD of four independent experiments. Statistics: one-way ANOVA. d TRAF6 mutants that fail to interact with LMP1 in PPI assays are also unable to bind cellular LMP1. HEK293 cells were co-transfected with HA-LMP1 and the indicated Flag-TRAF6 mutants. Flag-TRAF6 was immunoprecipitated (IP) via its Flag-tag and coprecipitated HA-LMP1 was detected on immunoblots by an α-HA antibody. Uncropped blots in Supplementary Fig. 6b. For statistical analysis LMP1 signals were digitalized and quantified (graph). Data are mean values ± SD of three independent experiments. […] TRAF6 recruitment is dependent on amino acids 371 − 386 of LMP1 (small panel). Confocal microscopy images show representative cells of three independent experiments. Quantitative data are mean values ± SD of ten randomly selected cells per transfection of one representative experiment (graph). Scale bars: 10 µm. Statistics: one-way ANOVA. p-values: *p ≤ 0.05, **p ≤ 0.01, ***p ≤ 0.001, ****p ≤ 0.0001. Source data and exact p-values in the Source Data file.
(§2) AlphaScreen experiments were performed in 96- or 384-well plates (Perkin Elmer, OptiPlate). In both assay formats, His-TRAF and GST-LMP1, GST-CD40, or GST-RANK proteins were incubated together in 40 µL of PBS (protein concentrations were calculated to the final reaction volume of 60 µL) supplemented with 0.5% BSA (Sigma, #A7030) and 0.1% Tween-20 (AppliChem, #A4974), for 1 h at room temperature (RT). If not indicated otherwise, standard protein concentrations were 300 nM for His-TRAF proteins and 100 nM for GST-LMP1 proteins. Ni-NTA-acceptor (Perkin Elmer, #6760619 C) and GST-acceptor (Perkin Elmer, # 6765300) beads were added each to a final concentration of 1–4 µg per mL in a final reaction volume of 60 µL and incubated for 1 h at RT in the dark. AlphaScreen PPI signals were measured in a CLARIOstar reader (BMG Labtech GmbH).

GST-CD40_216-277 = assay: AlphaScreen PPI, TRAF6 mutants binding to CD40; set-up: species or system human; TRAF6 binding to CD40 (AlphaScreen), mean: unit not given here; conditions: for effect of TRAF6 mutation on binding to CD40 (in words): AlphaScreen PPI; for TRAF6 binding to CD40 (AlphaScreen), mean / TRAF6 binding to CD40 (AlphaScreen): Figure 2b; for TRAF6 binding to CD40 (AlphaScreen), mean: mean of n = 3
Experimental: as §1, §2

HA-LMP1 = assay: Confocal immunofluorescence colocalization of Flag-TRAF6 with HA-LMP1 in HeLa cells; type: cell-based, Epstein-Barr virus; conditions: for colocalization with HA-LMP1 (in words): confocal microscopy; for colocalization of TRAF6 with LMP1, mean: mean of ten cells
Experimental: HeLa cells were seeded onto cover glasses (Thermo Scientific, Menzel) in 24-well plates one day before transfection. Cells were transfected at 50–60% confluency with 50 ng of pCMV-HA-LMP1 plasmids and 100 ng of pRK5-Flag-TRAF6 plasmids, adjusted to a total of 500 ng DNA per sample with pRK5 empty vector, using Lipofectamine 2000 (Thermo Fisher Scientific) according to the manufacturer’s instructions. At 24 h posttransfection, cells were washed once with PBS and fixed with 4% paraformaldehyde (Sigma-Aldrich) for 20 min at RT, followed by permeabilization with 0.3% (v/v) Triton X-100 and blocking with 5% (v/v) FBS in PBS for 1 h at RT. For immunostaining, the cells were incubated overnight with the primary antibodies α-HA (1:1000, clone 16B12, BioLegend) and α-DYKDDDDK (1:1000, clone L5, BioLegend) at 4 °C. The secondary antibodies goat α-mouse Alexa 488 (1:500, cross-adsorbed, Invitrogen, #A-11029) and goat α-rat Alexa 555 (1:500, cross-adsorbed, Invitrogen, #A-21434) were added for 1.5 h at RT. Microscope slides were sealed with cover glasses using Mowiol mounting medium (Sigma-Aldrich). Nuclei were stained with Hoechst 33258 (Sigma-Aldrich). All samples were imaged using a Leica TCS SP5 confocal microscope with 405 nm, 488 nm, 543 nm or 633 nm laser lines, scanning each channel separately under image capture conditions that eliminated channel overlap. For each single experiment, 10 transfected cells positive for both constructs were randomly captured as single-cell images for quantification. The resulting images were then analyzed using the Leica TCS SP5 colocalization analyses application (LAS AF Version 2.7.3.9723). Analysis was performed with default parameters.

[1] = relative to mean wt 100, replicate 1

Molecule | effect of TRAF6 mutation on binding to LMP1 (in words) (GST-LMP1_181-386) | TRAF6 binding to LMP1 (AlphaScreen), mean (GST-LMP1_181-386) | TRAF6 binding to LMP1 (AlphaScreen) (GST-LMP1_181-386; [1]) | TRAF6 binding to LMP1 (AlphaScreen) (GST-LMP1_181-386; replicate 2) | TRAF6 binding to LMP1 (AlphaScreen) (GST-LMP1_181-386; replicate 3) | effect of TRAF6 mutation on binding to CD40 (in words) (GST-CD40_216-277) | TRAF6 binding to CD40 (AlphaScreen), mean (GST-CD40_216-277) | TRAF6 binding to CD40 (AlphaScreen) (GST-CD40_216-277; [1]) | TRAF6 binding to CD40 (AlphaScreen) (GST-CD40_216-277; replicate 2) | TRAF6 binding to CD40 (AlphaScreen) (GST-CD40_216-277; replicate 3) | colocalization with HA-LMP1 (in words) (HA-LMP1) | colocalization of TRAF6 with LMP1, mean (HA-LMP1)
B1 | prevented the interaction of TRAF6 with LMP1 and RANK | 4.615 | 2.0 | 6.0 | 5.9 | no impact on TRAF6 binding to CD40 | 85.62 | 56.3 | 84.0 | 116.7 | fail to interact with LMP1 wild-type clusters; also recorded: strongly decreased colocalization with HA-LMP1 | 16.72
B2 | complete loss of TRAF6 binding | 1.355 | 0.9 | 1.6 | 1.5 | complete loss of TRAF6 binding | 0.5871 | 0.7 | 0.5 | 0.5 | fail to interact with LMP1 wild-type clusters; also recorded: strongly decreased colocalization with HA-LMP1 | 24.45
B3 | complete loss of TRAF6 binding | 5.785 | 2.7 | 7.8 | 6.8 | complete loss of TRAF6 binding | 0.6069 | 0.8 | 0.43 | 0.6 | fail to interact with LMP1 wild-type clusters; also recorded: strongly decreased colocalization with HA-LMP1 | 13.45
